What all share (assay type): physicochemical
Data set [1] is described as follows: Percent sedimentation after 24 hours of macromolecules dispersed in oleic acid with and without PC. Particulars: 300 μl oleic acid, error ±5%; for Percent sedimentation after 24 hours, +PC: Example 17: with egg yolk PC SUVs; for Percent sedimentation after 24 hours, −PC: Example 17: without PC. On the procedure:
10 mg of cytochrome C, haemoglobin and FITC-dextran were each dissolved in 1 ml of distilled water. 4.4 mg of RNA (extracted from Torula yeast) was dissolved in 1 ml of phosphate-buffered saline. 2×50 μl of each of these solution was dispensed into fresh glass tubes, and to one of each of these sets of solutions was added 250 μl of SUVs prepared as in example 1 at a concentration of 40 mg/ml of egg yolk lecithin (PC).
Both sets of tubes were shell-frozen and lyophilised overnight as above. The following day 300 μl of oleic acid was added to each of the tubes. The samples were left to stand at room temperature with occasional vortexing for one hour until complete dispersion had been achieved. The oils were allowed to stand overnight. The turbidity of the samples prepared without PC was greater than those containing PC.
The following day, sediments had settled out in the samples prepared without PC. Without disturbing any of the samples, the top 150 μl of each sample was taken off, and the absorbances measured of both the material removed, and the material left behind, after mixing; comparison of the two readings allowed one to calculate the percentage sedimentation for samples with and without PC (error in measurements ±5%) Values obtained are listed below.

Data set [2] can be described thus: Dispersion of hydrophilic species/amphiphile array in hydrophobic solvent: visual optical clarity.
Data set [3] in a line: Turbidity of oil preparations by optical density / absorbance (plate reader). Particulars: for OD650: Example 23: HDPoC, one hour; for optical density at 550 nm: Example 25: 0.5 mg protein/well, oleic acid. As for the experimental part: It is very much preferred that the preparations of the invention are optically clear and this can be monitored by measuring turbidity at visible wave lengths and, in some cases, by checking for sedimentation over a period of time. […]
Aprotinin was dissolved in distilled water at a concentration of 10 mg/ml. Hexadecyl phosphocholine (HDPoC) was dissolved in distilled water at a concentration of 100 mg/ml. To aliquots of 100 μl of aprotinin solution, volumes of HDPOC were added ranging from 0 through to 10, 20, 30, 40 to 50 μl. The mixtures were frozen at −20° C. and lyophilised overnight. The following day 100 μl of oleic acid was added to each sample and shaken for one hour at room temperature on an orbital shaker.
Octyl glucoside was dissolved in distilled water and dispensed into wells of a microplate to give the following amounts of amphiphile per well: −0, 0.5, 1.0, 1.5, 2.0, 2.5, 5, 7.5 and 10 mg. Aprotinin was dissolved in distilled water at a concentration of 5 mg/ml, and 100 μl was dispensed into each well above, containing 0.5 mg of protein. The plate was mixed well, frozen at −20° C. and lyophilised overnight. The following day, […] of oleic acid was added to each well. The plate was shaken at room temperature, and optical density measurements at 550 nm taken at intervals with a plate reader. A low absorbance value indicates a low level of scattering, and corresponds to effective dispersion of protein in oil.
The results, expressed in terms of optical density as a function of octyl glucoside concentration (at constant protein concentration) at different times after addition of oleic acid are given in the table and accompanying graph.

[4] abbreviates: Example 7: salmon calcitonin together with aprotinin, egg PC (EmulsiFlex), glycerol mono-oleate BP.

As for Haemoglobin, in data set [1], the “Percent sedimentation after 24 hours, +PC” value worked out at 0% and the “Percent sedimentation after 24 hours, −PC” value came to 44%.

With `NC[C@@H]1O[C@H](O[C@H]2[C@@H](O)[C@H](O[C@@H]3[C@@H](O)[C@H](N)C[C@H](N)[C@H]3O[C@H]3O[C@H](CN)[C@@H](O)[C@H](O)[C@H]3N)O[C@@H]2CO)[C@H](N)[C@@H](O)[C@@H]1O.O=S(=O)(O)O` [Neomycin sulphate, reference compound], in data set [2] (Example 27: soya PC dispersion, 1 g Miglyol 818, overnight at room temperature), the appearance of solution result is reported as “optically clear solution”.

With `[Ca+2].[Cl-].[Cl-]` [calcium chloride], the appearance of dispersion entry in data set [2] (Example 35: soy PC SUV, 500 mg Miglyol 818, after standing overnight) is on record as “completely clear dispersion”; in data set [2] (Example 35: soy PC SUV, 500 mg oleic acid, after several hours), “completely clear dispersion”.

Regarding aprotinin, the “appearance of oil phase” value in data set [2] (Example 3: lyophilate stored 5 days at 4° C. in desiccator with phosphorus pentoxide, then 300 mg oleic acid) is on record as “optically clear oil phase”. In addition, the appearance of dispersion entry in data set [2] (setting [4]) is “optically clear opalescent dispersion”; in data set [2] (Example 36: AOT amphiphile, 200 mg octanol, cleared rapidly, state after 24 hours) it was “opalescent dispersion”. Further, the appearance of solution result in data set [2] (Example 23: HDPoC, lipid:protein ratio 4:1, oleic acid) is “Optically clear solutions”; in data set [2] (Example 23: HDPoC, lipid:protein ratio 5:1, oleic acid) it was “Optically clear solutions”. The OD650 in data set [3] (lipid:protein ratio 0, 100 μl oleic acid) came out at 1.117; in data set [3] (lipid:protein ratio 1:1, 100 μl oleic acid), 0.869; in data set [3] (lipid:protein ratio 2:1, 100 μl oleic acid), 0.438; in data set [3] (lipid:protein ratio 3:1, 100 μl oleic acid) it was 0.207; in data set [3] (lipid:protein ratio 4:1, 100 μl oleic acid), 0.094; in data set [3] (lipid:protein ratio 5:1, 100 μl oleic acid) it was 0.099. Also, the “optical density at 550 nm” value was determined as 0.548 in data set [3] (octyl glucoside 0.00 mg/well, 1 hr); 0.458 in data set [3] (octyl glucoside 0.00 mg/well, 4 hr); 0.489 in data set [3] (octyl glucoside 0.00 mg/well, 8 hr); 0.082 in data set [3] (octyl glucoside 0.50 mg/well, 1 hr); 0.043 in data set [3] (octyl glucoside 0.50 mg/well, 4 hr); 0.103 in data set [3] (octyl glucoside 0.50 mg/well, 8 hr). The “optical density at 550 nm” value is −0.003 in data set [3] (octyl glucoside 1.00 mg/well, 1 hr); −0.008 in data set [3] (octyl glucoside 1.00 mg/well, 4 hr); −0.008 in data set [3] (octyl glucoside 1.00 mg/well, 8 hr); −0.004 in data set [3] (octyl glucoside 1.50 mg/well, 1 hr); −0.015 in data set [3] (octyl glucoside 1.50 mg/well, 4 hr); −0.015 in data set [3] (octyl glucoside 1.50 mg/well, 8 hr). Moreover, the “optical density at 550 nm” value in data set [3] (octyl glucoside 2.00 mg/well, 1 hr) is −0.007; in data set [3] (octyl glucoside 2.00 mg/well, 4 hr), −0.012; in data set [3] (octyl glucoside 2.00 mg/well, 8 hr) it was −0.013; in data set [3] (octyl glucoside 2.50 mg/well, 1 hr), 0.006; in data set [3] (octyl glucoside 2.50 mg/well, 4 hr), −0.004; in data set [3] (octyl glucoside 2.50 mg/well, 8 hr), −0.002. Moreover, the “optical density at 550 nm” value is on record as 0.307 in data set [3] (octyl glucoside 5.00 mg/well, 1 hr); −0.013 in data set [3] (octyl glucoside 5.00 mg/well, 4 hr); −0.014 in data set [3] (octyl glucoside 5.00 mg/well, 8 hr); 0.65 in data set [3] (octyl glucoside 7.50 mg/well, 1 hr); −0.015 in data set [3] (octyl glucoside 7.50 mg/well, 4 hr); −0.014 in data set [3] (octyl glucoside 7.50 mg/well, 8 hr). The “optical density at 550 nm” value is given as 1.628 in data set [3] (octyl glucoside 10.00 mg/well, 1 hr); 0.817 in data set [3] (octyl glucoside 10.00 mg/well, 4 hr); −0.014 in data set [3] (octyl glucoside 10.00 mg/well, 8 hr).

As to ribonuclease, in data set [2] (Example 31: soy PC SUV, 1.6 g Miglyol 818, after several hours), the appearance of dispersion result was “clear dispersion”.

Consider Salmon calcitonin, for which the “appearance of oil phase” value in data set [2] (Example 1: egg PC SUVs, lyophilised, 300 mg oleic acid BP, one to two hours at room temperature) is given as “single clear lipid phase, which was optically transparent”; in data set [2] (Example 4: 13.4 mg protein, 100 mg soy PC, 200 mg oleic acid), “clear oil phase”. In data set [2] (Example 2: soy PC SUVs, 95% oleic acid), the “protein content of clear preparation” value is reported as 6.7 mg protein/g oleic acid. In addition, the appearance of preparation entry in data set [2] (Example 2: soy PC SUVs, lyophilised, 1.2 g of 95% oleic acid) is given as “completely clear”. Moreover, in data set [2] (Example 4: soy PC SUVs, 200 mg oleic acid), the “calcitonin content of clear oil phase” value was determined as 42.7 mg calcitonin/g. Moreover, the appearance of dispersion entry is reported as “optically clear opalescent dispersion” in data set [2] (setting [4]); “opalescent” in data set [2] (Example 11: 30 mg soy PC, 300 mg MCT oil, following morning); “turbid” in data set [2] (Example 11: 30 mg soy PC, 300 mg Miglyol 810, following morning); “opalescent” in data set [2] (Example 11: 30 mg soy PC, 300 mg Miglyol 812, following morning); “completely clear” in data set [2] (Example 11: 30 mg soy PC, 300 mg Miglyol 818, following morning); “completely clear” in data set [2] (Example 11: 30 mg soy PC, 300 mg Miglyol 829, following morning). Besides, the appearance of dispersion entry in data set [2] (Example 11: 30 mg soy PC, 300 mg Miglyol 840, following morning) was “turbid”.

With carboxyfluorescein [reference compound], the appearance of dispersions entry in data set [2] (Example 33: soy PC SUV, melts of tripalmitin, triheptadecanoin or tristearin with 2% oleic acid, 78 C, after several minutes) was “completely clear”.

As to ferritin, in data set [2] (Example 18: egg yolk PC SUVs, ammonium acetate 10 mg/ml, oleic acid), the appearance of solution result is “optically clear solutions were obtained (although ferritin solution showed some opalescence, and was strongly coloured)”.

As to Cytochrome C, in data set [1], the “Percent sedimentation after 24 hours, +PC” value is 3.1% and the “Percent sedimentation after 24 hours, −PC” value is 76%.

The values above are taken from patent US6368619B1, “Hydrophobic preparations of hydrophilic species and process for their preparation” (Provalis UK Limited, priority 1993, dated 2002).
